For two variants, ratio to parent results are on record in article PMC6179184, “Interaction of the Warsaw breakage syndrome DNA helicase DDX11 with the replication fork-protection factor Timeless promotes sister chromatid cohesion” (PLoS Genetics, 2018).

The chains are these.
B1: DDX11-3xFlag wild type [human] / endogenous Timeless (HEK 293T) [human (endogenous in HEK 293T)] (parent complex)
chain 1: MANETQKVGAIHFPFPFTPYSIQEDFMAELYRVLEAGKIGIFESPTGTGKSLSLICGALSWLRDFEQKKREEEARLLETGTGPLHDEKDESLCLSSSCEGAAGTPRPAGEPAWVTQFVQKKEERDLVDRLKAEQARRKQREERLQQLQHRVQLKYAAKRLRQEEEERENLLRLSREMLETGPEAERLEQLESGEEELVLAEYESDEEKKVASRVDEDEDDLEEEHITKIYYCSRTHSQLAQFVHEVKKSPFGKDVRLVSLGSRQNLCVNEDVKSLGSVQLINDRCVDMQRSRHEKKKGAEEEKPKRRRQEKQAACPFYNHEQMGLLRDEALAEVKDMEQLLALGKEARACPYYGSRLAIPAAQLVVLPYQMLLHAATRQAAGIRLQDQVVIIDEAHNLIDTITGMHSVEVSGSQLCQAHSQLLQYVERYGKRLKAKNLMYLKQILYLLEKFVAVLGGNIKQNPNTQSLSQTGTELKTINDFLFQSQIDNINLFKVQRYCEKSMISRKLFGFTERYGAVFSSREQPKLAGFQQFLQSLQPRTTEALAAPADESQASTLRPASPLMHIQGFLAALTTANQDGRVILSRQGSLSQSTLKFLLLNPAVHFAQVVKECRAVVIAGGTMQPVSDFRQQLLACAGVEAERVVEFSCGHVIPPDNILPLVICSGISNQPLEFTFQKRELPQMMDEVGRILCNLCGVVPGGVVCFFPSYEYLRQVHAHWEKGGLLGRLAARKKIFQEPKSAHQVEQVLLAYSRCIQACGQERGQVTGALLLSVVGGKMSEGINFSDNLGRCVVMVGMPFPNIRSAELQEKMAYLDQTLPRAPGQAPPGKALVENLCMKAVNQSIGRAIRHQKDFASVVLLDQRYARPPVLAKLPAWIRARVEVKATFGPAIAAVQKFHREKSASS
chain 2: MDLHMMNCELLATCSALGYLEGDTYHKEPDCLESVKDLIRYLRHEDETRDVRQQLGAAQILQSDLLPILTQHHQDKPLFDAVIRLMVNLTQPALLCFGNLPKEPSFRHHFLQVLTYLQAYKEAFASEKAFGVLSETLYELLQLGWEERQEEDNLLIERILLLVRNILHVPADLDQEKKIDDDASAHDQLLWAIHLSGLDDLLLFLASSSAEEQWSLHVLEIVSLMFRDQNPEQLAGVGQGRLAQERSADFAELEVLRQREMAEKKTRALQRGNRHSRFGGSYIVQGLKSIGERDLIFHKGLHNLRNYSSDLGKQPKKVPKRRQAARELSIQRRSALNVRLFLRDFCSEFLENCYNRLMGSVKDHLLREKAQQHDETYYMWALAFFMAFNRAASFRPGLVSETLSVRTFHFIEQNLTNYYEMMLTDRKEAASWARRMHLALKAYQELLATVNEMDISPDEAVRESSRIIKNNIFYVMEYRELFLALFRKFDERCQPRSFLRDLVETTHLFLKMLERFCRSRGNLVVQNKQKKRRKKKKKVLDQAIVSGNVPSSPEEVEAVWPALAEQLQCCAQNSELSMDSVVPFDAASEVPVEEQRAEAMVRIQDCLLAGQAPQALTLLRSAREVWPEGDVFGSQDISPEEEIQLLKQILSAPLPRQQGPEERGAEEEEEEEEEEEEELQVVQVSEKEFNFLDYLKRFACSTVVRAYVLLLRSYQQNSAHTNHCIVKMLHRLAHDLKMEALLFQLSVFCLFNRLLSDPAAGAYKELVTFAKYILGKFFALAAVNQKAFVELLFWKNTAVVREMTEGYGSLDDRSSSRRAPTWSPEEEAHLRELYLANKDVEGQDVVEAILAHLNTVPRTRKQIIHHLVQMGLADSVKDFQRKGTHIVLWTGDQELELQRLFEEFRDSDDVLGHIMKNITAKRSRARIVDKLLALGLVAERRELYKKRQKKLASSILPNGAESLKDFCQEDLEEEENLPEEDSEEEEEGGSEAEQVQGSLVLSNENLGQSLHQEGFSIPLLWLQNCLIRAADDREEDGCSQAVPLVPLTEENEEAMENEQFQQLLRKLGVRPPASGQETFWRIPAKLSPTQLRRAAASLSQPEEEQKLQPELQPKVPGEQGSDEEHCKEHRAQALRALLLAHKKKAGLASPEEEDAVGKEPLKAAPKKRQLLDSDEEQEEDEGRNRAPELGAPGIQKKKRYQIEDDEDD

Variants of B1 are the subject of the experiment. The experiment can be described thus: co-immuno-precipitation (anti-Flag M2 agarose beads) with quantified Western blot; HEK 293T whole cell extracts, 48 hr post-transfection; three independent experiments; parent: 1; read off a plot.
For the variant chain 1 E201K, chain 1 Y202A, the ratio to parent was roughly 0.48.

In the case of chain 1 E201K, chain 1 Y202A, chain 1 E203K, the ratio to parent is roughly 0.56.
